Laboratory results taken from US20230270119A1, “BIOSTIMULANT AND BIOPROTECTIVE PEPTIDES AND THEIR USE IN AGRICULTURE” (priority 2020, published 2023).

Columns and labels:
Botrytis cinerea [1] = experiment: Botrytis cinerea necrosis areas on treated eggplant leaves; format: in vivo, Botrytis cinerea on Solanum melongena; conditions: day 8, control 11 mm^2 (FIG. 12C)
Source text: (§1) The present inventors also carried out tests aimed at determining the effects of exogenous application of the peptides of the invention, at picomolar and femtomolar concentrations, against the development of the necrotrophic fungus on Solanum melongena (eggplant) plants (FIG. 12C) and Vitis vinifera (vine) plants (FIG. 12D). […] The positive effect of the treatment was statistically significant from day 3 of inoculation of the pathogen to day 8 where values of 11 mm^2 were reached on the control leaves, unlike the treated leaves where values of 8.4 and 6.0 mm^2 were recorded on leaves treated with the peptides PS1-70 and PS1-120 at a concentration of 100 pM, and values of 6.2 and 4.10 mm^2 were recorded on leaves treated with said peptides at a concentration of 100 fM (FIG. 12C). Similar results were obtained on vine plants (FIG. 12D). The positive effect of the treatment was already statistically significant from day 1 of inoculation of the pathogen to day 8 where values of 43 mm^2 were reached on the control leaves, and values of 16.7 and 13.6 mm^2, respectively, were reached on leaves treated with the peptides PS1-70 and PS1-120 at a concentration of 100 pM, and values of 12 and 11.8 mm^2 were reached on leaves treated with said peptides at a concentration of 100 fM (FIG. 12D). Similar results were obtained on olive trees.

CAT2, SAM and APX2 genes = experiment: Salt stress gene expression in tomato plants irrigated with 100 fM peptides; format: in vivo; conditions: femtomolar; for activation of salt stress-responsive genes: 8 days after irrigation, 0 mM NaCl (FIG. 18A1, B1, C1); for tolerance to salt / induction of responsive genes: irrigated 7 days with 150 mM NaCl (FIG. 18A2, B2, C2)
Method: The analysis was carried out on the CAT2(A), SAM (B) and APX2 (C) genes. The asterisks indicate the statistical significance of the data by Student's t-test (*p<0.05; **p<0.01; ***p<0.001). […] An experiment was also set up to verify the efficiency of the peptides PS1-70, PS1-120 and SEQ ID NO.5, when administered at femtomolar concentrations, in promoting tolerance to a high salt stress condition.

Alternaria alternata = Alternaria alternata necrosis areas on treated tomato leaves; format: in vivo; conditions: 100 fM
Method: For the performance of assays on the phytopathogenic Botrytis cinerea and Alternaria alternata fungi, the present inventors used spores of this microorganism obtained from cultures on solid PDA (Potato Dextrose Agar) sporulation substrate. The plates were inoculated with 20 μl of a conidial suspension at a concentration of 1×10^6 spores/ml and incubated for 15 days at 25° C. in the presence of diffused light, so as to obtain complete sporulation. The spores were then collected in 5 ml of sterile water and, in order to remove the mycelium, were filtered through glass wool, washed with sterile distilled water and collected by centrifugation at room temperature. The concentration of spores suitable for inoculation (10^5-10^7 spores/ml) was determined by the serial dilution method using a Burker cell counting chamber for spore counting.
The assay was carried out on a detached leaf by taking a compound leaf for each treated tomato plant and for each control plant. Each leaflet of the compound leaf was marked with 3 markers in order to guide the subsequent application of the spores and detection of the pathogen developing necrotic areas.
The present inventors also performed assays aimed at determining the effects of exogenous application of the peptides of the invention on tomato plants against the development of the necrotrophic Alternaria alternata fungus (FIG. 14).
The positive effect of the treatment was statistically significant from day 1 of inoculation of the pathogen to day 8 where values of 24 mm^2 were reached on the control leaves, unlike the treated leaves where values of 8.4 and 8.0 mm^2 were recorded on leaves treated with the peptides PS1-70 and PS1-120 at a concentration of 100 fM (FIG. 14A); and values of 17 mm^2 were recorded on the control leaves and values of 8.3 mm^2, 7.9 mm^2, 8.9 mm^2, and 7.8 mm^2 were recorded on leaves treated with the peptides PS1-70, SEQ ID NO.8, SEQ ID NO.3 and SEQ ID NO.5, respectively, at a concentration of 100 fM (FIG. 14B).

Botrytis cinerea [2] = experiment: Botrytis cinerea necrosis areas on treated vine leaves; format: in vivo, Botrytis cinerea on Vitis vinifera; conditions: day 8, control 43 mm^2 (FIG. 12D)
Source text: as §1

[3] = system: cat1, tft1, Sam, HSFA2, HSP70, HSP90, MPK1 and WRKY40 genes; experiment: Salt stress gene expression in tomato plants irrigated with 100 pM peptide; format: in vivo; conditions: 100 pM irrigation
Method: The analysis was carried out on the cat1, tft1, Sam, HSFA2, HSP70, HSP90, MPK1 and WRKY40 genes. The asterisks indicate the statistical significance of the data by Student's t-test (*p<0.05; **p<0.01; ***p<0.001).
An experiment was also set up to verify the efficiency of the peptides PS1-70, PS1-120 and SEQ ID NO.5, when administered at femtomolar concentrations, in promoting tolerance to a high salt stress condition.

[4] = day 8, control 24 mm^2 (FIG. 14A)

B1: PS1-70: recombinant peptide contained in the amino-terminal region of the Prosystemin polypeptide, free of Systemin; expressed in E. coli (protein)
chain: MGTPSYDIKNKGDDMQEEPKVKLHHEKGGDEKEKIIEKETPSQDINNKDTISSYVLRDDTQEIPKMEHEE
modifications: Peptide PS1-70
notes: recombinant peptide contained in the amino-terminal region of the Prosystemin polypeptide, free of Systemin; expressed in E. coli
necrosis areas (Botrytis cinerea [1]; 100 pM): 8.4 mm^2 | necrosis areas (Botrytis cinerea [1]; 100 fM): 6.2 mm^2 | activation of salt stress-responsive genes (CAT2, SAM and APX2 genes): able to activate a series of salt stress-responsive genes | tolerance to salt / induction of responsive genes (CAT2, SAM and APX2 genes): more salt-tolerant than the untreated control plants | necrosis areas (Alternaria alternata; day 8, control 17 mm^2 (FIG. 14B)): 8.3 mm^2 | necrosis areas (Alternaria alternata; [4]): 8.4 mm^2 | necrosis areas (Botrytis cinerea [2]; 100 pM): 16.7 mm^2 | necrosis areas (Botrytis cinerea [2]; 100 fM): 12 mm^2 | activation of salt stress-responsive genes and transcription factors ([3]; 48 hours, 0 mM NaCl (FIG. 17A)): able to activate a series of genes and transcription factors responsive to salt stress | tolerance to salt / induction of responsive genes ([3]; moderate salt stress 80 mM NaCl (FIG. 17B)): more tolerant to salt than the untreated control plants

B2: PS1-120: recombinant peptide contained in the amino-terminal region of the Prosystemin polypeptide, free of Systemin; expressed in E. coli (protein)
chain: MGTPSYDIKNKGDDMQEEPKVKLHHEKGGDEKEKIIEKETPSQDINNKDTISSYVLRDDTQEIPKMEHEEGGYVKEKIVEKETISQYIIKIEGDDDAQEKLKVEYEEEEYEKEKIVEKET
modifications: Peptide PS1-120
notes: as for B1
necrosis areas (Botrytis cinerea [1]; 100 pM): 6.0 mm^2 | necrosis areas (Botrytis cinerea [1]; 100 fM): 4.10 mm^2 | activation of salt stress-responsive genes (CAT2, SAM and APX2 genes): able to activate a series of salt stress-responsive genes | tolerance to salt / induction of responsive genes (CAT2, SAM and APX2 genes): more salt-tolerant than the untreated control plants | necrosis areas (Alternaria alternata; [4]): 8.0 mm^2 | necrosis areas (Botrytis cinerea [2]; 100 pM): 13.6 mm^2 | necrosis areas (Botrytis cinerea [2]; 100 fM): 11.8 mm^2
